We go through two molecules from paper PMC10914744, “Key homeobox transcription factors regulate the development of the firefly’s adult light organ and bioluminescence”.

Series [1] deals with T1, AlABD-B (Aquatica leii, UniProt A0AAN7SB49 90-481). The series is described as follows: EMSA; poly(dI-dC); signal significantly reduced by unlabeled WT probe; LightShift EMSA kit; 2.0 ug protein (stored in PBS, 10% glycerol), 0.2 pmol probe, 2 ug/uL poly(dI-dC), 60 min at room temperature, native 6% PAGE; binding buffer salt and pH not stated. The note with it: protein: recombinant; tags: His (pET28a, Ni-NTA); label: biotin; blunt. On the technique in general: A gel shift assay detects complexes by their altered migration in electrophoresis.
T1 sequence (A0AAN7SB49 entry or part of it): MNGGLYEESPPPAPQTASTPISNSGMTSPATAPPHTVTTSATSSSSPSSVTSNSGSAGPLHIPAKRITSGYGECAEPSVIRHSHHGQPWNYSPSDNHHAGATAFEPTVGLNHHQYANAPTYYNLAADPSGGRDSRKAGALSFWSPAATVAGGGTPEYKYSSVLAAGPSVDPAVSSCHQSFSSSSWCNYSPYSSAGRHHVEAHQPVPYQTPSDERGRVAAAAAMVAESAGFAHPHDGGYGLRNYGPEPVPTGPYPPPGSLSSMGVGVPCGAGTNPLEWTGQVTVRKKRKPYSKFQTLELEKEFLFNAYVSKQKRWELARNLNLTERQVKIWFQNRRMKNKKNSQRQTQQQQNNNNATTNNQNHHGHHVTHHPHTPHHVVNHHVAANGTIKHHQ

Series [2] has as its target T1, AlABD-B. Nature of the series: EMSA; poly(dI-dC); no significant complex detected; LightShift EMSA kit; 2.0 ug protein (stored in PBS, 10% glycerol), 0.2 pmol probe, 2 ug/uL poly(dI-dC), 60 min at room temperature, native 6% PAGE; binding buffer salt and pH not stated. Particulars: protein: recombinant; tags: His (pET28a, Ni-NTA); blunt.

B1: biotin-WT AlLuc1 promoter probe (dsDNA)
DNA 1: ATACATTAAAGTATCTAATAAAAATTAATGGTTCATTAAGATATATAAAAAACA
DNA 2: TGTTTTTTATATATCTTAATGAACCATTAATTTTTATTAGATACTTTAATGTAT
On to B1, for which the binding result in series [1] was “binds”.

B2: ABD-B binding site mutation probe (dsDNA)
DNA 1: ATACATTAAAGTATCCGGCGGGAACCGGCAATCTGCCGGGATATATAAAAAACA
DNA 2: TGTTTTTTATATATCCCGGCAGATTGCCGGTTCCCGCCGGATACTTTAATGTAT
In the case of B2, in series [2], the binding result is on record as “no binding”.
